koff and Kd data for two molecules are collected here from US20260184758A1 (CUE BIOPHARMA, published 2026).

For experiment [1], the target named is T1, construct 4276 (single-chain TMP: NKG2 peptide …, β2M polypeptide, HLA-E heavy chain polypeptide, Ig Fc …). In words: BLI (Octet HTX), biotinylated receptor on streptavidin biosensor, bivalent TMP as analyte, kinetic analysis. An excerpt: (§1) Streptavidin-coated biosensors were used to immobilize biotinylated NKG2A/CD94 heterodimers, or biotinylated NKG2C/CD94 heterodimers.

For experiment [2], the target named is T1, construct 4276 (single-chain TMP: NKG2 …). In words: BLI (Octet HTX), biotinylated receptor on streptavidin biosensor, bivalent TMP as analyte, steady state Kd (avidity).
From the text: as §1

B1: biotinylated NKG2A/CD94 heterodimer (receptor)
chain 1: not shown
chain 2: KNSFTKLSIEPAFTPGPNIELQKDSDCCSCQEKWVGYRCNCYFISSEQKTWNESRHLCASQKSSLLQLQNTDELDFMSSSQQFYWIGLSYSEEHTAWLWENGSALSQYLFPSFETFNTKNCIAYNPNGNALDESCEDKNRYICKQQLI
notes: Biotinylated heterodimer immobilized on streptavidin-coated biosensors; also called CD94/NKG2A receptor; NKG2A/CD94 complex
In the case of B1, in experiment [1], the off-rate (koff) stood at 0.04 s⁻¹. The Kd in experiment [2] is 57 nM.

B2: biotinylated NKG2C/CD94 heterodimer (receptor)
chain 1: not shown
chain 2: KNSFTKLSIEPAFTPGPNIELQKDSDCCSCQEKWVGYRCNCYFISSEQKTWNESRHLCASQKSSLLQLQNTDELDFMSSSQQFYWIGLSYSEEHTAWLWENGSALSQYLFPSFETFNTKNCIAYNPNGNALDESCEDKNRYICKQQLI
notes: Biotinylated heterodimer immobilized on streptavidin-coated biosensors; also called CD94/NKG2C receptor
Take B2: the off-rate constant (koff) in experiment [1] worked out at 0.053 s⁻¹. Also, in experiment [2], the Kd amounted to 55 nM.
